# Laboratory results taken from article PMC6662305, “The basic helix‐loop‐helix transcription factor, OsPIL15, regulates grain size via directly targeting a purine permease gene OsPUP7 in rice”.
# T1: OsPIL15-His (Oryza sativa L. cv. Nipponbare, UniProt Q0JNI9 1-637)
# T1 sequence: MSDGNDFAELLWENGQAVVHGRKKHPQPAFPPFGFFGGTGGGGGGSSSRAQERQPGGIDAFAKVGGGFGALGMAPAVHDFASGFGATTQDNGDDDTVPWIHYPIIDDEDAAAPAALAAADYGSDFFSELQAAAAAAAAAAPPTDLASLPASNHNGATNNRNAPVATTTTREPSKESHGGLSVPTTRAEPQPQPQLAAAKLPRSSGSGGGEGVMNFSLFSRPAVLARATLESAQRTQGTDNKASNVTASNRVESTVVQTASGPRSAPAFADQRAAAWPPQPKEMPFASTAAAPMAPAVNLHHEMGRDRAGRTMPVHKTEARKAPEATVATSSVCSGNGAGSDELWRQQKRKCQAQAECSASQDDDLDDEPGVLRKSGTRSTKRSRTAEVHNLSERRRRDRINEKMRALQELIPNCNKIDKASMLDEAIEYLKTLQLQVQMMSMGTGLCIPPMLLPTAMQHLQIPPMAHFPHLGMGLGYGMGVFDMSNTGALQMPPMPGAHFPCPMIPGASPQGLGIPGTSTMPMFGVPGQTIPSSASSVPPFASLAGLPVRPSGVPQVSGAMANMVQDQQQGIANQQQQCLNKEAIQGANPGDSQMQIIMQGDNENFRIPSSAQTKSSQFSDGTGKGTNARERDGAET
# What was measured:
# OsPIL15-His [1] = target: T1, OsPIL15-His; assay: EMSA; strong signal; EMSA: Beyotime kit binding buffer (composition, salt and pH not stated), 30 min at room temperature, 6% native polyacrylamide gel; settings: protein: recombinant; tags: His (pET28a); chain copies: 2; label: 3' biotin; blunt
# OsPIL15-His [2] = target: T1, OsPIL15-His; assay: EMSA; EMSA: Beyotime kit binding buffer (composition, salt and pH not stated), 30 min at room temperature, 6% native polyacrylamide gel; settings: protein: recombinant; tags: His (pET28a); chain copies: 2; label: 3' biotin; blunt
Binder,binding result (OsPIL15-His [1]),binding result (OsPIL15-His [2])
N1-box probe (dsDNA) DNA 1: TCTAATGACACGCGAGCAAGTCC DNA 2: GGACTTGCTCGCGTGTCATTAGA,binds,
N2-box probe (dsDNA) DNA 1: TCTAATGACACGAGAGCAAGTCC DNA 2: GGACTTGCTCTCGTGTCATTAGA,,no binding
Mutant probe 2 (dsDNA) DNA 1: AATACAGGCAGCCCTATCTC DNA 2: GAGATAGGGCTGCCTGTATT,,no binding
G-box probe (dsDNA) DNA 1: TCTAATGACACGTGAGCAAGTCC DNA 2: GGACTTGCTCACGTGTCATTAGA,,no binding
Mutant probe 1 (dsDNA) DNA 1: AATACAGCCGCGACTATCTC DNA 2: GAGATAGTCGCGGCTGTATT,,no binding
